Test results published in US20260209387A1, “SINGLE-DOMAIN ANTIBODY FOR INHIBITION OF NEUTROPHIL ELASTASE ACTIVITY” (UNIVERSITE DE LIEGE, priority 2023, published 2026).

T1: human cathepsin G (hCG) (Homo sapiens, UniProt P08311)
T1 construct: purchased Calbiochem
T1 sequence (P08311 21-244): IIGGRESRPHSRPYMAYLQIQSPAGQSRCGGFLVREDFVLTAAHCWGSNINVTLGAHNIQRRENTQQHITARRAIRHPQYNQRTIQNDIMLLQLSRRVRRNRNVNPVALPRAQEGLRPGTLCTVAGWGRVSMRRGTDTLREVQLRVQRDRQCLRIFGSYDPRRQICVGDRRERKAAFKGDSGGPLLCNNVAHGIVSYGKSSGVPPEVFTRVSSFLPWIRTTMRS

T2: proteolytic (elastase) activity of cystic fibrosis patient sputa (Homo sapiens, UniProt P08246)
T2 construct: Sputa from patients with cystic fibrosis, COPD or ciliary diskenisia above 18 years old were collected; from tissue; host or cells: expectorated sputum of patients with cystic fibrosis, COPD or ciliary dyskinesia
T2 sequence (P08246 30-267): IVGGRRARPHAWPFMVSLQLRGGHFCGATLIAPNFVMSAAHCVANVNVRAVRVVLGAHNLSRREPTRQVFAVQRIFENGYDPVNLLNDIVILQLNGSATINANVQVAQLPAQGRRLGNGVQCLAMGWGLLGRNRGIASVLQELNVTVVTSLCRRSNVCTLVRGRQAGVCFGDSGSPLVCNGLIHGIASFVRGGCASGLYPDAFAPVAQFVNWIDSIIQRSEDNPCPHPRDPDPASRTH

T3: proteolytic activity of COPD patient sputum (Homo sapiens, UniProt P08246)
T3 construct: Sputa from patients with cystic fibrosis, COPD or ciliary diskenisia above 18 years old were collected; from tissue; host or cells: expectorated sputum of patients with cystic fibrosis, COPD or ciliary dyskinesia
T3 sequence (P08246 30-267): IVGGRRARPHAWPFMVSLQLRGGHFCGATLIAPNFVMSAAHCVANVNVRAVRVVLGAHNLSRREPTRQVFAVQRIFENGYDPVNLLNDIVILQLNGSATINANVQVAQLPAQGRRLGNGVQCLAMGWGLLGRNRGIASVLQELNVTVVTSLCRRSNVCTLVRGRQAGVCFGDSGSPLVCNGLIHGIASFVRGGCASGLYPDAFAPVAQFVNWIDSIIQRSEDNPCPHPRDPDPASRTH

T4: proteolytic activity of ciliary dyskinesia patient sputum (Homo sapiens, UniProt P08246)
T4 construct: Sputa from patients with cystic fibrosis, COPD or ciliary diskenisia above 18 years old were collected; from tissue; host or cells: expectorated sputum of patients with cystic fibrosis, COPD or ciliary dyskinesia
T4 sequence (P08246 30-267): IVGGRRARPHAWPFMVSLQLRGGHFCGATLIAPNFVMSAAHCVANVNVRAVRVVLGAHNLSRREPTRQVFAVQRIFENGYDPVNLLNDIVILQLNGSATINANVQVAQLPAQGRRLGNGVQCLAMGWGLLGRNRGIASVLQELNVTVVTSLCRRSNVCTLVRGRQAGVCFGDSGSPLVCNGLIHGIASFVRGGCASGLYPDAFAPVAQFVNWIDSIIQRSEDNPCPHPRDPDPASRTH


Key:
human cathepsin G (hCG) = target: T1, human cathepsin G (hCG); assay: BLI binding to other serine proteases: hCG; details: 50 nM protease
Protocol: The specificity of NbE201 for hNE was also investigated by BLI. Biotinylated NbE201 (10 μg/mL) was immobilized on streptavidin biosensors (SA, Sartorius) following provider's indications. The biosensors were then immersed in a 50 nM solution of a serine protease. The proteases tested were human cathepsin G (hCG), human proteinase 3 (hPR3), mouse pancreatic elastase (mPE), mouse neutrophil elastase (mNE) and porcine pancreatic elastase (pPE). hNE was used a positive control. The association and dissociation were measured for 70 s and 320 s respectively, in kinetic buffer (KB, Sartorius). The experiments were carried out at 30° C. in 384-wells black-bottom microplates in polypropylene (Greiner Bio-One, Belgium) and with orbital agitation (1000 rpm).

[1] = Aggregates detection by Nanoparticle Tracking Analysis; assay type: physicochemical; details: after nebulization; for average counted particles per frame (NTA): 0.25 mg/ml
Protocol: 2.3.5 Aggregates Detection. Protein aggregates were visualized by Nanoparticle Tracking Analysis (NTA) (ZetaView, 220 Twin Laser, Particle Metrix, Ammersee, Germany), a technique used for measuring single particle size and concentration. NbE201, NbE201-PEG10 and NbE201-PEG40 solutions (0.25 mg/ml) were analysed before and after nebulization. 11 positions were analysed for which following parameters were used: • Laser wavelength: 488 nm • Scatter, no fluorescence • Sensitivity: 80 • Shutter: 100

[2] = target: T2, proteolytic (elastase) activity of cystic fibrosis patient sputa; assay: Sputum proteolytic activity inhibition, cystic fibrosis sputa; assay type: biochemical
Protocol: (§1) 2.2.2 Evaluation of the proteolytic activity inhibition in CF, COPD and ciliary diskenisia sputa. […] Sputa collection procedures were evaluated by the local ethic committee (comité d'Ethique Hospitalo-Facultaire des Cliniques universitaires Saint-Luc) and approved under the Belgian registration number B4032021000071.
(§2) Sputum proteolytic activity was assessed by following with a spectrophotometer the absorbance at 410 nm of suc-Ala-Ala-Pro-Val-pNA degradation, the chromogenic hNE substrate. Sputa were classified as mucoid, muco-purulent or purulent (Serisier et al., 2009, Respir Res, 10 (1): 63. doi: 10.1186/1465-9921-10-6). According to the experiment, 10 to 20 mg of sputum were weighted in a 96-well plate. ISVDs were then added to the sputum samples and pre-incubated at 37° C. during different periods of time. The hNE substrate was diluted to a concentration of 1 mM in a tris buffer (0.1M tris, 0.5M NaCl, 0.01% Sodium azide (NaN3), pH 7.5) and 50 μl of this solution were added to the wells. The substrate degradation was followed during 50 min. […] Slopes were then calculated from the regression line drawn from the absorbance measurements and were expressed as a percentage of the sputum proteolytic activity without ISVDs.

[3] = target: T3, proteolytic activity of COPD patient sputum; assay: Sputum proteolytic activity inhibition, COPD sputum; assay type: biochemical; details: 15 mg sputum, COPD patient in exacerbation
Protocol: as §1, §2

[4] = target: T4, proteolytic activity of ciliary dyskinesia patient sputum; assay: Sputum proteolytic activity inhibition, ciliary dyskinesia sputum; assay type: biochemical; details: 10 mg sputum
Protocol: as §1, §2

[5] = test system: hNE-induced alveolar-capillary damage; assay: hNE-induced acute lung injury mouse model; assay type: in vivo, mice; details: nasal instillation 15 min prior to hNE 25 μg; molar ratio Nb/HNE 4/1
Protocol: The in vivo efficacy of NbE201 was determined using a mouse model of acute lung injury induced by nasal instillation of HNE (L agente et al., 2009, American Thoracic Society International Conference Abstracts. (American Thoracic Society), A5668. doi: 10.1164/ajrccm-conference.2009.179.1_MeetingAbstracts.A5668). […]
It was determined with the hemoglobin assay kit (Sigma) and performed according to the manufacturer's instructions. […] A measurement of the optical density at 400 nm allowed the quantification of this stable complex. […]
Histological sections of the lung were digitized using a panoramic scan 2 (3[…]). […] This semi-automated analysis made it possible to quantify the damaged alveolar surface. […] The percentage of injured surface was determined by the ratio: % injured area=(injured area/alveolar area)×100

Molecule	binding to hCG by BLI (human cathepsin G (hCG))	average counted particles per frame (NTA) [1]	size of counted particles, percentile 10 [1]	size of counted particles, percentile 50 [1]	size of counted particles, percentile 90 [1]	inhibition of proteolytic activity in sputum samples ex vivo ([2]; cystic fibrosis sputa)	sputum inhibition capacity over time ([2]; exposure 0 to 24 h)	inhibitory capacity in COPD sputum [3]	inhibitory capacity in ciliary dyskinesia sputum [4]	protection against hNE-induced alveolar-capillary damage [5]	sputum proteolytic activity inhibition at time 0, compared with NbE201 ([2]; exposure time 0)
NbE201: anti-hNE ISVD (VHH/nanobody) from immunized lama, amino acid sequence SEQ ID NO: 4 (protein) VHH: QVQLQESGGGLVQAGGSLRLSCVVPGRTISLYRMGWFRQAPGKEREFVAGINWSGDMTDYVDSVKGRFTISRDNAKNTVYLEMNSLKPEDTAIYYCTADPKLLPLADSSYGYWGQGTQVTVSS	does not bind to the other proteases	228	22.3±12 nm	138±8 nm	342.8±26 nm	able to inhibit the proteolytic activity in sputum samples ex vivo	a loss of inhibitory capacity over time was observed	No apparent differences in inhibitory capacity	No apparent differences in inhibitory capacity	protects the lungs from developing alveolar-capillary damage	
NbE201-PEG40: NbE201-Cter conjugated via C-terminal cysteine to branched 40 kDa PEG-maleimide (conjugate) VHH: QVQLQESGGGLVQAGGSLRLSCVVPGRTISLYRMGWFRQAPGKEREFVAGINWSGDMTDYVDSVKGRFTISRDNAKNTVYLEMNSLKPEDTAIYYCTADPKLLPLADSSYGYWGQGTQVTVSSSPSTPPTPSPSTPPC		far below that threshold						No apparent differences in inhibitory capacity	No apparent differences in inhibitory capacity		No significant difference
